Positions count from the first letter of the chain named. Names may count otherwise.
T1: His9-hMSR1 (human MSR1 extracellular domain) (Homo sapiens, UniProt P21757)
T1 construct: human MSR1 extracellular domain expressed with a N-terminal nonahistidine tag; His9 (nonahistidine) (N); purchased R&D Systems 2708-MS
T1 sequence (P21757 77-451 limits assumed): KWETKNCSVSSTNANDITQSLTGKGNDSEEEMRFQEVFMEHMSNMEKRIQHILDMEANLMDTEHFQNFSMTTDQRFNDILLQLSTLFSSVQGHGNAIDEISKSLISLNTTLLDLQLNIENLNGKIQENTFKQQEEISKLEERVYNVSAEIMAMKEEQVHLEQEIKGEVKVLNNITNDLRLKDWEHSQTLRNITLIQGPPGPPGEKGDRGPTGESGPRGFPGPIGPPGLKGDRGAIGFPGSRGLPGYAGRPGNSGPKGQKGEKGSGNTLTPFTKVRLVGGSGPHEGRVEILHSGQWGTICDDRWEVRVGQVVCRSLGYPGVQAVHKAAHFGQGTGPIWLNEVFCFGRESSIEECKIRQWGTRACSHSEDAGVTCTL

B1: H1H27729P-N297Q-LP1 (conjugate)
VH: QVQLVESGGGLVKPGGSLRLSCAASGFIFSDYYMSWIRQAPGKGLEWVSYISSSGTTIYGDSVKGRFTMSRDNAKNSLYLQMNSLRAEDTAVYYCARNYALFDYWGQGTLVTVSS
VL: DIQMTQSPSSLSASVGDRVTITCQASQDISKYLNWYQQKPGKAPKLLIYYTSNLETGVPSRFSGSGSGTDFTFTISSLQPEDIATYYCHQSDYLPFTFGPGTKVDIKR
B2: H1H27734P-N297Q-LP1 (conjugate)
VH: EVQLVESRGGLVQPGGSLRLSCAASGFTFSSYAMSWVRQAPGKGLEWVSAISGSGGSTFYADSVKGRFTISRDNSKNTVYLQMNSLRAEDTAVYYCAKALVLRFLEWLGDYWGQGTLVTVSS
VL: DIQMTQSPSTLSASVGDRVTITCRASQSISSWLAWFQQKPGKAPKLLIYKASSLESGVPSRFSGSGSGTEFTLTISSLQPDDFATYYCQQYKSYWTFGQGTKVEIKR
B3: H1H27739P-N297Q-LP1 (conjugate)
VH: EVQLVESGGGLVQPGGSLRLSCTASGFTFSSYAMSWVRQAPGKGLEWVSAISGTGSSTYFTDSVKGRFAISRDNSKNTLYLQMNSLRAEDTAVYYCAKDGEWLSTVTLFDYWGQGTLVTVSS
VL: EIVMTQSPATLSVSPGERATLSCRASQSVSSNLAWYQQKPGQAPRLLIYGASTRATGIPARFSGSGSGTDFTLTISSLQSEDFALYYCQQYFIWPPHPTFGPGTKVDIKR
B4: H1H27731P-N297Q-LP1 (conjugate)
VH: QLQLQESGPGLVKPSETLSLTCTVSGGSISRISYYWGWIRQPPGKGLEWIGSIYDSGSTYYNPSLKSRVTISIDTSKNQFSLKLSSVTAADTAVYYCVRYSSSSAFAFDYWGQGTLVTVSS
VL: DIQMTQSPSSVSASVGDRVTITCRASQGISSWLAWYQQKPGKAPKLLIYAASSLQSGVPSRFSGSGSGTDFTLTISSLQPEDFATYYCQQANSFPFTFGPGTKVDIKR
B5: H1H27754P-N297Q-LP1 (conjugate)
VH: EVQLVESGGGLVQPGGSLRLSCAASGFTFRTYAMTWVRQAPGKGLDWVSAITGDGGNTYYADSVKGRFTISRDNSKNTLYLQMNSLRAEDTAIYYCAKDQRFSFALYYFDYWGQGTLVTVSS
VL: B4 VL with K42N, S52F, S93N, F96W, P100Q, D105E
B6: H1H27747P-N297Q-LP1 (conjugate)
VH: QVQLVESGGAVVQPGRSLRLSCAASGFTFSYYGMHWVRQAPGKGLEWVAVISYDGSKKYYADSVKGRFTISRDNSKNTLYLQMNSLRAEDTAVYYCAKDLTVDFYYGMDVWGQGTTVTVSS
VL: B4 VL with A51T, V58A, Y87F, F96Y, P100Q, V104L, D105E
B7: H1H21234N-N297Q-LP3 (conjugate)
VH: QVQLQESGPGLVKPSETLSLTCTVTGGSISRNYWSWIRQPPGKGLEWIGYIYYSGSIDYNPSLKSRVTISVDTSKNQFSLKLSSMTAADTAVYYCARDRWNWKYGMDVWGQGTTVIVSS
VL: EIVLTQSPGTLSLSPGERATLSCRASQTVRNNYLAWYHQKPGQAPRLLIYGASSRATGIPDRFSGSGSGTDFTLTISRLEPEDFTVYYCHQYGNSPWTFGQGTKMEIKR

These molecules were tested on LXR (THP1/LXR-Luc cells) (assay: LXR-luciferase reporter bioassay (Example 31)). Details: differentiated THP1/LXR-Luc cells, 48 hours.
Format: cell-based, human
Text: Generation of assay cell line. To test the efficacy of anti-MSR1 antibody-LXR conjugates in vitro, a cell-based LXR responsive luciferase reporter assay was developed. To generate the assay cell line, a LXR regulated luciferase reporter gene [Cignal Lenti LXR Reporter (luc) kit (Qiagen, Cat #CLS-001 L)] was transduced into THP1 cells, and cells were selected for two weeks in puromycin. The lentivirus expresses the firefly luciferase gene under the control of a minimal CMV promoter and tandem repeats of the LXR transcriptional response element. The resulting cell line is referred to as THP1/LXR-Luc cells.
Assay protocol. THP1/LXR-Luc cells were seeded onto 96 well plates at 40,000 cells/well in media containing RPMI supplemented with 10% FBS and pencillin/streptomycin and subsequently differentiated with 200 nM Phorbol Myristate Acetate (PMA) for 3 days. After the 3-day differentiation period, three-fold serial dilutions of antibody drug conjugates, unconjugated antibodies, or free payloads in fresh media were added to the cells at final concentration ranging from 100 nM to 0.01 nM. Media alone served as a blank control. Forty-eight hours later, luciferase activity was determined after the addition of One-Glo™ reagent (Promega, Cat #E6130) to each well. Relative light units (RLUs) were measured on a Victor luminometer (PerkinElmer) and EC50 values were determined using a four-parameter logistic equation over a 10-point dose response curve (GraphPad Prism). The signal to noise (S/N) was determined by calculating the ratio of RLU of standard one over RLU of standard eight for each of the unconjugated anti-MSR1 antibodies or free payloads. “LP #” represents a linker-payload for which the corresponding structures are provided elsewhere herein, and “P #” represents a payload for which the corresponding structures are provided elsewhere herein.

Row | Molecule | EC50 [nM]
1 | B1 | 1.64
2 | B2 | 5.19
3 | B3 | 1.6
4 | B4 | 1.46
5 | B5 | 1.3
6 | B6 | 4.77

Same assay, conditions: signal to noise, ratio of RLU of standard one over standard eight; 48 hours

Row | Molecule | S/N
7 | B1 | 14.5
8 | B2 | 17.8
9 | B3 | 21.0
10 | B4 | 15.5
11 | B5 | 17.3
12 | B6 | 20.6

Each molecule was assayed against T1, His9-hMSR1 (human MSR1 extracellular domain) (assay: Biacore T200 surface plasmon resonance binding kinetics of anti-MSR1 antibody-drug conjugates and parental antibodies). Details: 25° C.; Table 19, antibody-LXR ADCs and unconjugated antibodies.
Procedure: The MSR1 antibodies disclosed herein were conjugated to various liver X receptor (LXR) payloads or various steroid payloads. This example describes how equilibrium dissociation constant (KD) values for human MSR1 reagents binding to human anti-MSR1 antibody-drug conjugates and their corresponding unconjugated parental antibodies were determined using a real-time surface plasmon resonance-based Biacore T200 biosensor.
All binding studies were performed in 10 mM HEPES, 300 mM NaCl, 3 mM EDTA, and 0.05% v/v Surfactant Tween-20, pH 7.4 (HBS-ET) running buffer at 25° C. The Biacore CM4 sensor chip surface was first derivatized by amine coupling with the goat anti-human Fcγ specific polyclonal antibody (Jackson ImmunoResearch Laboratories, Cat #BR-1008-39) to capture anti-MSR1 monoclonal antibodies. Binding studies were performed on human MSR1 extracellular domain expressed with a N-terminal nonahistidine tag (His9-hMSR1; R&D Systems, Cat #2708-MS).
The association rate (ka) and dissociation rate (kd) were determined by fitting the real-time binding sensorgrams to a 1:1 binding model with mass transport limitation using Scrubber 2.0c curve-fitting software. Binding dissociation equilibrium constant (KD) and dissociative half-life (t½) were calculated from the kinetic rates as: […]
Binding kinetics parameters for His9-hMSR1 binding to different anti-MSR1 antibody-LXR ADCs and their unconjugated parental antibodies at 25° C. are shown in Table 19. “LP1” represents a linker-payload for which the payload structure is provided in Example 11.
The binding studies were repeated with anti-MSR1 antibody H1H21234-N297Q and steroid linker payloads (LPs). “LP3” represents a linker-payload for which the structure is provided in Example 23, and “LP13” represents a linker-payload for which the structure is provided in Example 24.

Row | Molecule | ka [M⁻¹ s⁻¹]
13 | B1 | 54700
14 | B2 | 69300
15 | B3 | 88800
16 | B4 | 128000
17 | B5 | 177000
18 | B6 | 136000

Same assay, conditions: 25° C.; Table 19; * = no dissociation observed, kd manually fixed at 1.00E−05

Row | Molecule | kd
19 | B1 | 0.000718 s⁻¹
20 | B2 | 0.000449 s⁻¹
21 | B3 | 0.000722 s⁻¹
22 | B4 | 1.00E−05* s^−1
23 | B5 | 1.00E−05* s^−1
24 | B6 | 0.000203 s⁻¹

Same assay, conditions: 25° C.; Table 20, antibody-steroid ADCs and unconjugated antibody

Row | Molecule | ka [M⁻¹ s⁻¹]
25 | B7 | 417000

Same assay, conditions: 25° C.; Table 20; * = no dissociation observed, kd manually fixed at 1.00E−05

Row | Molecule | kd [s⁻¹]
26 | B7 | 1e-05
